This passage reports FcRn binding relative to control tralokinumab results from article PMC6520328.

The assay deals with neonatal Fc receptor (FcRn) (UniProt P55899). Kind of assay: FcRn binding assay.
UniProt P55899, sequence (P55899 whole entry, looked up, tested part not stated): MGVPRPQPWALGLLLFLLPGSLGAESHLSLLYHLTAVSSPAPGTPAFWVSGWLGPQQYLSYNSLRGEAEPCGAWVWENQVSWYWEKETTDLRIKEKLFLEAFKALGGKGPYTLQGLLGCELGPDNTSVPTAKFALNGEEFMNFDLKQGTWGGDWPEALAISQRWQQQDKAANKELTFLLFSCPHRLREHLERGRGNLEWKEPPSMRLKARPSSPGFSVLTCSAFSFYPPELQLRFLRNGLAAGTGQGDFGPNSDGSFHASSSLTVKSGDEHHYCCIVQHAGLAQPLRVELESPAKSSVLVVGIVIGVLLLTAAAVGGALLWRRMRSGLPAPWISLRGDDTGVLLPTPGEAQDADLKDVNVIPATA

Take “Fc deglycosylated tralokinumab (antibody)”: the FcRn binding relative to control tralokinumab is 87%.
